Results as given in the DeepSol protein solubility set.

Experiment: soluble on expression in E. coli; label from the status in PepcDB or PDB records
With “MMHYDGMYYINEEEVRSNLTMKDTIDAIREAFEEYRAGRASSNTRVRTFSEGSVLNTMPASMEKYHILGHKTYSASRNGARFVVTLFDSRNNDLIAIVEANRLGQMRTGAVTAYATSILHPHVENFTIIGSGFQAETQLEGMITVSHPQSIRVYSRNYDHAKDFASRMSKQFGVDIRPVDNAEAALSDADTVSSITNSTSPVILRKYLGDEYHVNLAGSNYMNRREAEYEVLHDADLVVTEHYDQSMVESAEISEYVKFGGKPVELREIAGRYGEFSGLRRTVFKSMGIGLEDIATAYRVLRNLGIA” the “soluble on expression in E. coli” value was “soluble”.
For “MAHHHHHHMSSTEEYYKLMEVILHILKKHKRHVECLKILLKLNRRDKIKDLLFECGDMITCKQMALICSRHSIHLEFTQEEVIRYPHMNLNQLASLSSGEHLSSIFLKLAKDLDVEEPKLPEDIYKTHLEEKRNTNVWDSAKQNLSASFVNAFVNAAFCKDKLMTVNSSL”, the “soluble on expression in E. coli” value was “not soluble”.
For “MSLAVVASAVAGCGQVRVGQVEPAPGSPTRAQVEDMLGRVRVVAERGRPGGYDRDCGRGGGCVFGPAWTDDHGGAEGHNGCDTRNDVLAAQLSDVRYREGTRDCVVVAGTLRDPYTGRLLEFRKADARDVQIDHVYPLAAAWDLGAAGWSPEQRVRFANDTVTNLMATAGAVNQAKGDATPAEWMPPARANHCFYAGKYLTVAVRYDLPVTAADNAVLHAIARTCPEGHHHHHH”, the “soluble on expression in E. coli” value was “soluble”.
With “MSIVSISYNQEEYIREALDGFAAQRTEFPVEVIIADDASTDATPRIIGEYAARYPQLFRPILRQTNIGVHANFKDVLSAARGEYLALCEGDDYWTDPLKLSKQVKYLDRHPETTVCFHPVRVIYEDGAKDSEFPPLSWRRDLSVDALLARNFIQTNSVVYRRQPSYDDIPANVMPIDWYLHVRHAVGGEIAMLPETMAVYRRHAHGIWHSAYTDRRKFWETRGHGMAATLEAMLDLVHGHREREAIVGEVSAWVLREIGKTPGRQGRALLLKSIADHPRMTMLSLQHRWAQTPWRRFKRRLSTELSSLAALAYATRRRALEGRDGGYRETTSPPTGRGRNVRGSHA” the “soluble on expression in E. coli” value was “not soluble”.
In the case of “MGSSHHHHHHSSGRENLYFQGHMEKDRKRILITGGAGFVGSHLTDKLMMDGHEVTVVDNFFTGRKRNVEHWIGHENFELINHDVVEPLYIEVDQIYHLASPASPPNYMYNPIKTLKTNTIGTLNMLGLAKRVGARLLLASTSEVYGDPEVHPQSEDYWGHVNPIGPRACYDEGKRVAETMCYAYMKQEGVEVRVARIFNTFGPRMHMNDGRVVSNFILQALQGEPLTVYGSGSQTRAFQYVSDLVNGLVALMNSNVSSPVNLGNPEEHTILEFAQLIKNLVGSGSEIQFLSEAQDDPQKRKPDIKKAKLMLGWEPVVPLEEGLNKAIHYFRKELEYQANNQGS”, the “soluble on expression in E. coli” value is reported as “soluble”.
In the case of “MDYDRYKLFVGGIAKETSEEALKQYFSRYGAVLEAVVAKEKVTGKPRGFGFVRFANDCDVVKALRDTHFILGKPVDVRKAIRKHELYQQPFSMQFLERKVQQMNGGLREMSSNGVTSRTKKIFVGGLSSNTTEEEFKSYFERFGRTTDVVVMHDGVTNRPRGFGFVTYDSEDSVEVVMQSNFHELSDKRVEVKRAIPKEGIQSNNGNAVNIPPSYSSFQATPYVPEQNGYGMVLQFPPPVFGYHHNVQAVQYPYGYQFTAQVANVSWNNPIMQPTGFYCAPPHPTPPPTNNLGYIQYMNGFDLSGTNISGYNPLAWPVTGDAAGALIHQFVDLKLDVHSQAHQRMNGGNMGIPLQNGTYI”, the “soluble on expression in E. coli” value is reported as “soluble”.
For “MSTRKLNKVMVQPVNLIFRYLQNRTRVQIWLYEDVTHRLEGYIIGFDEFMNVVFDEAEEVNMKTKGRNKIGRILLKGDNITLIHAAQQEA”, the “soluble on expression in E. coli” value was “not soluble”.
For “MAHHHHHHMQKSNEKNGPENNAKNGPENNAKNGPENNAKKGPENNAKKGPENNAKKGPENNAKKGPENNAKKGPENKEKKGHSCCGKKGSTGNPKEKKKSDKNSEDNKNSQGDKISKDHAECTPSLHVECAHNCCKKKLAFIYDCWDNFKSYKNIIEQHTKGQQENNFQLQGAGDEDSGEDGGASTTGHSMAMAMPMSFQLSTHTIILFKFWETKTVSRAGIPSQWRLLSGTP”, the “soluble on expression in E. coli” value was “soluble”.
In the case of “MGSDKIHHHHHHAPLTFDETAFREDVKTLASDAFGGRAPLSDGEQKTLDYLTHAFKSMGLKGAFNGEYLQAVPMAKITADQSMVLKVGELSFTSGEDFTARTQRVVPKVELSGSDMVFVGYGINAPEYGWNDYAGIDVRGKTVVLLVNDPGFATQDPKVFKGNAMTYYGRWTYKYEEAARQGAEAVFIVHEDAPAAYGWGVVKNSNTNTKFTLVDGNNNQSQVGVMGWLQYAAAKQILAASGQDIEALKAAAKAPGFKAVPLTVQADLTLSNHIERAESHNVAAILPGNKNADEAVVMHAHWDHLGQIEEEGKTIILNGAVDNATGVAGVLALARHYAALPEAEKPARSMIFSAFTAEETGLIGAQYFAENPPLPTSKLVAFLNIDGMNVGEGVDYILRYGEGVSELETMLSDAAKAQNRQVKADPRPQNGLMFRSDHFALAQQGVPGLLFMSLGDTDPDYIAHKYHKGADDYSPDWQLGGVKQDLKLIEQILSRLANGSEWPKWLEESDFKARRAKDGR”, the “soluble on expression in E. coli” value is reported as “not soluble”.
With “IVMAETKETVIDEVVVTGTGAQKKVTVTGAVTTVDVSQLRTPTASITNALAGNVAGILARQTSGQPGSNISEFWIRGISTFGAGGSALVLVDGFERDMNEINVEDIQDFSVLKDASATAIYGSRGANGVVLITTKRGKEGK” the “soluble on expression in E. coli” value was “not soluble”.
In the case of “MAHHHHHHMSKAVQFSVLKQGSLEPGSWTQRVLTIDTKSDTVTISRKHHPEHVFYHSLEVAHVQMWPRYKASEISGHFNSLKAKMTLRIFGKQVPVPKMSVEAVTTADVAEMIRVPSVPSSISLDASLNIERPPVAAATLSQKQKERHPATATSANDDLCDSWMIRFTSIDSYELAVMLLRNMRNTEGKRKRLFGDHVLQDLERVQKAWAEETTGAKSIGGALRSGS”, the “soluble on expression in E. coli” value is reported as “soluble”.
For “MKIGDVEVRDDVFNVKVKKHVLWEVVKWQLAKRRQGTHSTKTRGEVAYSGRKILPQKGTGNARHGERGVNIFVGGGVAHGPKPRDYEYPLPKRVRKLGLKMALSDKARNNAIIFVDNIDLGKKPKTKKAIEFLKNLGVEKEKVLVVIPEKADVLYKSFRNLPNVRVLLPEGLNVYDVLWANKLVIQKDCLDRIYKKVEA”, the “soluble on expression in E. coli” value was “soluble”.
For “MSSDIQQIRIGLTNNHPCSYLADRMERVAVAIDPQMQTPETYEVLMANGFRRSGDTIYKPHCDHCQSCQALRIPAPDFVPSKSQKRLLKLLSQEFHWQLKPELDEDWYTLYARYIFARHRHGSMYPPNKMEFAKFARAKWLNTQYLHLYQGEKLVAIAVTDLLPNSASAFYTFYDPDISISLGTLAVLCQLNYCQQTKKQWLYLGYQIDECPAMNYKVRFNPHQRLVNQRWRGLEHHHHHH”, the “soluble on expression in E. coli” value was “soluble”.
In the case of “MSLSDDSMIDAPLTRADAVSEKIVFQDDFNQVDSIPDRNKWSLCKKGSPAWSKYLSESYDQAYVHDGKLVLVAEKVNGVYKTGGVQSLGKAEFQYGKIEICARFTKTAKGGWPAIWMMPAKPVYSGWPACGEIDIMEQLNHDGIVYQTIHSHYKNDLGFTKPVPTKTVSYNKGQFNIFGIEWTPEALTFKVNGATTLVYPNLHLADESVKKQWPFDTSFYLILNYALGGPGTWPGTIMDSELPAKMEIDWVKVSQPRGREGHHHHHH”, the “soluble on expression in E. coli” value is reported as “soluble”.
For “MDFHRALSALFTNQAAVQPLLGSLGFPFNDGTSILTTALAAQSGGKKLDTPLGILPFDSLPTTNLLTPTKKIKLEDELCASPVSSRSSTVSSSHFSSPQRSPSRKMSVPIPEEKKDSAYFERRRKNNDAAKRSRDARRQKEEQIASKAHALERENMQLRGKVSSLEQEAAQLRFLLFSKISPANSEVSCESNDSTETNDSNDSKSDSTIEV”, the “soluble on expression in E. coli” value was “not soluble”.
For “SYHTGTAYGMIDLPRILRSITTFESFGKVKIGILKKGIQAIESLLVARHQMYSAVYMHPTVRIADTMIKRAVIKEIQEKNLDIKDLANMDDIALVSFLRISENYLMERIDRRNLYKNLITYSYFDLNPIEKWIFVNLDEKQILSLESRFYEEFGWDIFIDIYPIPKMEEHNVYIISDEGVKRLDEVSPLAQSLK”, the “soluble on expression in E. coli” value was “not soluble”.
With “AHHHHHHGSGKRVVIALGGNALQQRGQKGSYEEMMDNVRKTARQIAEIIARGYEVVITHGNGPQVGSLLLHMDAGQATYGIPAQPMDVAGAMSQGWIGYMIQQALKNELRKRGMEKKVVTIITQTIVDKNDPAFQNPTKPVGPFYDEETAKRLAREKGWIVKEDSGRGWRRVVPSPDPKGHVEAETIKKLVERGVIVIASGGGGVPVILEDGEIKGVEAVIDKDLAGEKLAEEVNADIFMILTDVNGAALYYGTEKEQWLREVKVEELRKYYEEGHFKAGSMGPKVLAAIRFIEWGGERAIIAHLEKAVEALEGKTGTQVLP” the “soluble on expression in E. coli” value was “soluble”.
In the case of “RETFKVLLQGVPDGIDLEGLKTDILSLPHIRSVHDIHLWTLDGESHVMTIHVVYCPDDFSSPQAVFDMKESVREKCSAHGIRHATIELDPEGCSCGMESC”, the “soluble on expression in E. coli” value is reported as “not soluble”.
With “MGSDKIHHHHHHAVQNTITIRSRGAKVYNKNGNAIVDARDKNIVLKEGTVAEYYGEPKYMVWRGHKKASFYNIGGNRYLLGYNVASLNDKGTLSIYRDSYIYDKTGKRVEKNTVLRKGTAINYVDKLNEKIETEKNLPKFYYYNMAIQRTHEGMLWVKYSVLSVKYHIINGKEYYKIANNKYIRATNIGYINGRQLFTTEATVTMGKATTKDGKYYARNMNGKITKTILPYKPGQKVVVDRSFQHSSKSFWRIKGTNYYIFGPDIKKFPIQALRR” the “soluble on expression in E. coli” value was “not soluble”.
In the case of “MGHHHHHHSHMGTVKQLLLFSETEGNPCFLDICGNFLVVGTDLAHFKSFDLSRREAKAHCSCRSLAELVPGVGGIASLRCSSSGSTISILPSKADNSPDSKICFYDVEMDTVTVFDFKTGQIDRRETLSFNEQETNKSHLFVDEGLKNYVPVNHFWDQSEPRLFVCEAVQETPRSQP”, the “soluble on expression in E. coli” value is reported as “soluble”.
For “MNMLKKSLTALVLLGGLGAPVVAHATPAAAEAASEVQVAWVDGKVRISWTEAAGIPNTVSLELPGKPRKTLGTTTAAGDNQLVVEPSALEPTNDPASVAKIVVSDPSTAEARSAGFDRYVRGATPLAPVMTGTGVLNWQFPADTAVDSTPNDPLDVDAPVQFVPKLTLGVTPGTTDECKTVVLPATTAPYGSVPKQISPYALELLNVSEWGQSKLAGVRVRSSSTAFSTPASTGYGTRITMTGSILLQTLQNPAAGNCEDVTDTAALGGHELALQAREDGGAWYAVGVSKTDAQGKYQFVVSNPGARQYRAVLKTAAASGAAHYQSISAERSVRATPQVIDASFADDTITLGQQPNARVTVAPYGSHQVALQFKNASGQWQGLMYRTLSAGRAESGPFAFSRLGDTQFRWWVASSTSTTGLPVDAGYTYPFTLHVS”, the “soluble on expression in E. coli” value was “not soluble”.
For “MGSKAKKRVLLPTRPAPPTVEQILEDVRGAPAEDPVFTILAPEDPPVPFRMMEDAEAPGEQLYQQSRAYVAANQRLQQAGNVLRQRCELLQRAGEDLEREVAQMKQAALPAAEAASSG”, the “soluble on expression in E. coli” value was “soluble”.
With “MDGPKPNLASAASMESLNSVSSEATNPSQVRTLFVSGLPMDAKPRELYLLFRGCRGYEGALLKMTSKNGKPTSPVGFVTFLSQQDAQDARKMLQGVRFDPECAQVLRLELAKSNTKVARPKQSPPPPQHAALSAAAAGVPQFLAPMQHDLLLDPQSAALFNEQQLLALSLPHLHAAQALQAAYMPASALQQYSQNQLFAAAQMHPAAAAAASLQHSQQASQASTSACSTLFVANLSAEVNEDTLRGVFKAFSGFTRLRLHNKNGSCVAFVEYSDLQKATQAMISLQGFQITANDRGGLRIEYARNKMADVNG” the “soluble on expression in E. coli” value was “soluble”.
In the case of “SNAMENQKMQEPLVYRRILLTVDEDDNTSSERAFRYATTLAHDYDVPLGICSVLESEDINIFDSLTPSKIQAKRKHVEDVVAEYVQLAEQRGVNQVEPLVYEGGDVDDVILEQVIPEFKPDLLVTGADTEFPHSKIAGAIGPRLARKAPISVIVVR”, the “soluble on expression in E. coli” value is reported as “soluble”.
With “MTYELCLEYGTYPLSRVDAYWGEDQNPPTFIQEDRLLCHKLETMNHLFHDLFVTIESQFHYVGFNMPEKRAQIRILYQEVATILKSKYKDYPIKIETFLL” the “soluble on expression in E. coli” value was “not soluble”.
